Patent publication US9896488B2

Target: Fc-tagged extracellular domain of RPTPσ (wild type) (mouse) (UniProt B0V2N1)
Assay: ELISA: RPTPσ-Fc on protein G plates, biotinylated aggrecan (5 ug/ml) preincubated with protamine (0-5 ug/ml). The reference is binding without protamine.

## Biotinylated aggrecan (from UniProt P13608)
  fold increase of binding in the presence of protamine: 2 fold
